According to article PMC8642555 (Nature Communications, 2021):
Positions count from the first letter of the chain named. Numbers in names are those of the source.

What was measured:
IgE [1] = experiment: binding kinetics (method not named in the legend or citing paragraphs; Supplementary Fig. 1e); settings: parent: est. 2.8e-3 s-1; read off a plot
[2] = target: bIgE-Fc2–4:FcεRIα-Ova complex (UniProt P12319); experiment: bead-based disruption assay; settings: parent: est. 20 µM; read off a plot
FcεRI (Homo sapiens) = FcεRI (Homo sapiens) (UniProt P12319); settings: cited from earlier work
Sequence of FcεRI (Homo sapiens) (P12319 26-257): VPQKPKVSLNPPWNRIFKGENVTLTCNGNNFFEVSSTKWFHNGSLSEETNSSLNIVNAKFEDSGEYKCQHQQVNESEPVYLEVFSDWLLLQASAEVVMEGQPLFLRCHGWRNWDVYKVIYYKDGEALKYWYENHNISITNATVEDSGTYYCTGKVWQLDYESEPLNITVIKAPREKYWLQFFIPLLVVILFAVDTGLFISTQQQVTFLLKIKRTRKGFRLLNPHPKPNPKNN

IgE [3] = experiment: binding studies with purified scFvs (method not given; Supplementary Fig. 3c); settings: read off a plot; for koff: parent: est. 2.5e-3; for kon: parent: est. 1.0e6
[4] = target: disulfide locked IgE-Fc2–4(G335C):FcεRIα(W156C) complex (UniProt P12319); experiment: BLI; single cycle kinetics; locked complex captured on Ni-NTA tips, coupled with EDC/NHS, nickel chelated with EDTA; anti-IgE agents in a twofold serial dilution from 1600 nM to 100 nM; 2:1 SCK binding model (Clamp-XP)
[5] = target: Biotinylated full length recombinant IgE (human) (UniProt P01854); experiment: BLI; biotinylated full length recombinant IgE on streptavidin (SA) tips; single cycle kinetics, five 100 s associations, four 100 s dissociations and a final 600 s dissociation; analyte in two-fold serial dilutions from 50 nM to 1.56 nM; Octet Red 96; 1:1 SCK model in BiaEvaluation 3.0
Sequence of Biotinylated full length recombinant IgE (human) (P01854 whole entry, looked up): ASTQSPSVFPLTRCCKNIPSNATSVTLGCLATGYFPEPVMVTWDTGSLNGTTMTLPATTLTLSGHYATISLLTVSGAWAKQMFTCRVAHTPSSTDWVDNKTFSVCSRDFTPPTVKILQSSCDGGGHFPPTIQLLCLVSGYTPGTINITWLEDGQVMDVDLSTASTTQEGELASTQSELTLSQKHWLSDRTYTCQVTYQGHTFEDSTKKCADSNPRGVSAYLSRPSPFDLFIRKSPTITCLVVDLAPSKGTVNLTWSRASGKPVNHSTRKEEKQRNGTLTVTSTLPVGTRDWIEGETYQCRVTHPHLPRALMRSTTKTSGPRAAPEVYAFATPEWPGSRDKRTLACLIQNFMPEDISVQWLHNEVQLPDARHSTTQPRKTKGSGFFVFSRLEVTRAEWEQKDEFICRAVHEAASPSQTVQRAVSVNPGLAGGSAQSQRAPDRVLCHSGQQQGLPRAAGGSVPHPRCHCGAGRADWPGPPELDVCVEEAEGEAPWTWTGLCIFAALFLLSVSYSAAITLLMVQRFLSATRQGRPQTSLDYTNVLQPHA

biotinylated IgE-Fc2–4 [6] = target: T1, biotinylated IgE-Fc2–4 (human, UniProt P01854 106-427, biotin (Sulfo-NHS-LC-Biotin labelling)); experiment: BLI; Octet-Red 96; biotin-labeled human IgE immobilised on streptavidin tips (~0.5 nm); serial dilution of anti-IgE agents from the lowest concentration (single-cycle kinetics); 1:1 SCK binding model; settings: both partners purified
T1 construct: human IgE heavy chain constant region, Fc fragment with the domains Cε2 to Cε4 (IgE-Fc2–4); PDB 2Y7Q is a cited IgE-Fc2–4:FcεRIα structure and may be another construct; also called bIgE-Fc2–4; biotin-IgE-Fc2–4

biotinylated-IgE-Fc2–4 [7] = target: T2, biotinylated-IgE-Fc2–4 (human, biotin (Sulfo-NHS-LC-Biotin)); experiment: BLI; Octet-Red 96; biotin-labeled human IgE on streptavidin tips (~0.5 nm); serial dilution of anti-IgE agents from the lowest concentration (single cycle kinetics); 1:1 SCK model; settings: both partners purified
T2 construct: IgE heavy chain constant region, human, Fc fragment with the domains Cε2, Cε3 and Cε4; the results speak of the KD for free IgE-Fc2–4; also called bIgE-Fc2–4; biotin-IgE-Fc2–4; source: labelled with Sulfo-NHS-LC-Biotin
T2 chain: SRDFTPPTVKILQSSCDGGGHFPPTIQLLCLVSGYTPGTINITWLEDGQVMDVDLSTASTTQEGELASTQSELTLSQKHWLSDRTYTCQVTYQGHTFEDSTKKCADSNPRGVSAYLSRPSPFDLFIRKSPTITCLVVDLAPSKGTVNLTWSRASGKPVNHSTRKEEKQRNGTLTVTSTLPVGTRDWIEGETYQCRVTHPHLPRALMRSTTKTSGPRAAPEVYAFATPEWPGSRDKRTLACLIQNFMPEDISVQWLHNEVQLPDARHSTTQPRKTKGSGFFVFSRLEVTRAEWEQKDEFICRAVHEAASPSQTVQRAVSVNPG

biotinylated-IgE-Fc2–4 [8] = target: T2, biotinylated-IgE-Fc2–4; experiment: bead-based disruption assay (flow cytometry of beads); FcεRIα-Ova coupled polystyrene beads loaded with 500 nM biotin-IgE-Fc2–4 and washed; serial dilution of anti-IgE agent, 30 min, room temperature, 900 rpm; fixed; remaining bIgE-Fc2–4 stained with PE/Cy5-streptavidin; ID50 from dose response fit; settings: both partners purified
biotinylated IgE-Fc2–4 [9] = target: T3, biotinylated IgE-Fc2–4 (Homo sapiens, UniProt P01854, biotin (Sulfo-NHS-LC-Biotin labelling)); experiment: BLI; Octet-Red 96; biotin-labeled human IgE immobilised on streptavidin tips (~0.5 nm); serial dilution of anti-IgE agents from the lowest concentration (single-cycle kinetics); 1:1 SCK binding model; settings: both partners purified
T3 construct: human IgE heavy chain constant region, Fc fragment with the domains Cε2 to Cε4 (IgE-Fc2–4); PDB 2Y7Q is a cited IgE-Fc2–4:FcεRIα structure and may be another construct; also called bIgE-Fc2–4; biotin-IgE-Fc2–4

Sequence of bIgE-Fc2–4:FcεRIα-Ova complex (P12319 whole entry, looked up, tested part not stated, one chain of several): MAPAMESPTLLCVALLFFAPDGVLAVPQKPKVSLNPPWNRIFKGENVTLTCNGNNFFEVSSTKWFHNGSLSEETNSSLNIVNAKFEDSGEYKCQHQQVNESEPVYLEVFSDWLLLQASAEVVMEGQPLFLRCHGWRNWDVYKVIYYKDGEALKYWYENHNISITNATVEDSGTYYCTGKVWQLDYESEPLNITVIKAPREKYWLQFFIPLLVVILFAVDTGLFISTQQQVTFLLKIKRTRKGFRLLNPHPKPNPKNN

## omalizumab single chain variable fragment (scFv) scFvCC (cysteines for a disulfide bond at the VH:VL interface; positions not printed)
IgE [1]
  koff: 0.013 s⁻¹
[2]
  other: ID50: 40000 nM

## IgE (from UniProt P01854)
FcεRI (Homo sapiens)
  Kd: 0.1 nM

## omalizumab single chain variable fragment (scFv) VH:G15D; VH:A41T; VH:I52V; VH:D74G; VH:R98K; VH:S100N; VH:H101N; VL:Q27K; VL:Y31S; VL:K46R
IgE [3]
  koff: 0.0016 s⁻¹
  kon: 2e+06 M⁻¹ s⁻¹

## omalizumab single chain variable fragment (scFv) VH:G15D; VH:I52V; VL:Y31S
IgE [3]
  koff: 0.002 s⁻¹
  kon: 1e+06 M⁻¹ s⁻¹

## HAE scFv (high-affinity omalizumab variant)
[4]
  KD of the high affinity site (2:1 model): 2.86 nM
  KD of the low affinity site (2:1 model): 25.8 nM

## omalizumab single chain variable fragment (scFv) VH:S28N; VH:T53K; VH:D55S; VH:S57E; VH:N59K; VL:Q27K; VL:S28P; VL:Y31G; VL:D32E; VL:M37L
IgE [3]
  koff: 0.00026 s⁻¹
  kon: 1.7e+06 M⁻¹ s⁻¹

B1: DARPin E2_79 (designed binder)
chain: MRGSHHHHHHGSDLGKKLLEAARAGQDDEVRILTANGADVNANDYWGHTPLHLAAMLGHLEIVEVLLKNGADVNATGNTGRTPLHLAAWADHLEIVEVLLKHGADVNAQDKFGKTAFDISIDNGNEDLAEILQKL
[5]
  Kd: 1.18 nM
  koff: 0.00212 s⁻¹
  kon: 1.79e+06 M⁻¹ s⁻¹
Biotinylated IgE-Fc2–4 [6]
  Kd: 1.18 nM
  koff: 0.00212 s⁻¹
  kon: 1.79e+06 M⁻¹ s⁻¹

B2: clone 16 scFv (scFv, V domains shown)
VH: EVQLVESGGGLVQPDGSLRLSCAVSGYNITSGYSWNWIRQTPGKGLEWVASVTYDGSTNYNPSVKGRITISRDGSKNTFYLQMNSLRAEDTAVYYCAKGNNYFGHWHFAVWGQGTLVTVSS
VL: DIQLTQSPSSLSASVGDRVTITCRASKPVDGEGDSYLNWYQQKPGKAPKLLIYAASYLESGVPSRFSGSGSGTYFTLTISSLQPEDFATYYCQQSHEDPYTFGQGTKVEIK
notes: VH of clone 16, from a shuffled library of C02 and HAE; most clones used the C02-VH with sporadic further mutations; VL of clone 16, from a shuffled library of C02 and HAE; most clones used the HAE-VL with sporadic further mutations
biotinylated-IgE-Fc2–4 [7]
  binding result: binds

B3: clone 7 scFv (scFv, V domains shown)
VH: B2 VH
VL: B2 VL with P28S, G31S, E32D, L37M, K46R, Y74H
notes: VH as the VH of C02; VL as the VL of C02 with D74H in the E-strand; Identical to C02 beyond D74H
biotinylated-IgE-Fc2–4 [8]
  fold increase of ID50 against C02: 5 fold

B4: clone A4 scFv (scFv, V domains shown)
VH: B2 VH
VL: B2 VL with Y74G
notes: VH of clone A4, from a shuffled library of C02 and HAE; most clones used the C02-VH with sporadic further mutations; VL of clone A4, from a shuffled library of C02 and HAE; most clones used the HAE-VL with sporadic further mutations
biotinylated-IgE-Fc2–4 [7]
  binding result: binds

B5: clone 7 scFv (C02 with VL D74H) (scFv, V domains shown)
VH: B2 VH
VL: B2 VL with P28S, G31S, E32D, L37M, K46R, Y74H
notes: as the scFv of C02 (Sm8), identical to it beyond D74H in the E-strand of the VL domain; cryo-EM structure with the locked IgE-Fc2–4:FcεRIα complex solved here; D74 counts on the VL domain
Biotinylated IgE-Fc2–4 [9]
  Kd: 0.581 nM
  koff: 0.00104 s⁻¹
  kon: 1.79e+06 M⁻¹ s⁻¹

B6: clone A4 scFv (shuffled C02/HAE omalizumab variant with VL D74G) (scFv, V domains shown)
VH: B2 VH
VL: B2 VL with Y74G
notes: from a shuffled library of C02 (Sm8) and HAE (Sm7); D74G in the E-strand of VL; D74 counts on the VL domain
Biotinylated IgE-Fc2–4 [9]
  Kd: 0.377 nM
  koff: 0.000565 s⁻¹
  kon: 1.5e+06 M⁻¹ s⁻¹

B7: clone 16 scFv (shuffled C02/HAE omalizumab variant with VL D74Y) (scFv, V domains shown)
VH: B2 VH
VL: B2 VL
notes: from a shuffled library of C02 (Sm8) and HAE (Sm7); D74Y in the E-strand of VL; D74 counts on the VL domain
Biotinylated IgE-Fc2–4 [9]
  Kd: 0.308 nM
  koff: 0.000448 s⁻¹
  kon: 1.45e+06 M⁻¹ s⁻¹
